Assay results: patent publication US20240084003A1 (SIMCERE ZAIMING PHARMACEUTICAL, published 2024)

B1: F1.60.9 (antibody, human IgG1, kappa, V domains shown)
VH: QVQLKESGPGLVAPSQSLSITCTVSGLSLNNYGVSWVRQPPGKGLEWLGVIWGDGSTNYHSALISRLSISKDNSKSQVFLKLNSLHTDDTATYYCAINWGDYWGQGTTLIVSS
VL: DIKMTQSPSSMNASLGERVTITCKASQDINSYLSWFQQKPGKSPKILIYRANRLIDGVPSRFSGSGSGQDYSLTISSLEYEDMGIYYCLQYGVFPLTFGAGTKLELKR
notes: human-murine chimeric IgG1 kappa
B2: F1.62.10 (antibody, human IgG1, kappa, V domains shown)
VH: QVQLQQSGPELVKPGASVKISCKASGYEFSSIWMNWVKQRPGEGLEWIGRIFPGDGEINYNEKFKGKATLTADRSSTTAYMQLSSLTSEDSAVYFCAGWRIYYGTYGAMDYWGQGTSVTVSS
VL: DIQMTQITSSLSASLGDRVTISCRASQDIGNYLNWYQQKPDGTVKLLIYYTSRLHSGVPSRFSGSGSRTDYSLTISNLQQEDIATYFCQQGNTLPWTFGGGTKLEIKR
notes: as for B1
B3: F1.216.2 (antibody, human IgG1, kappa, V domains shown)
VH: QVQLQQSGPEVVRPGASVKISCKASGYAFSSSWMNWMKQRPGKALEWIGRIYPGDGDTNYSGEFKVKATLTADKSSSTAYMQLSSLTSEDSAVYFCAREGSYYSNPWYFDYWGQGTTLTVSS
VL: DVLVTQTPLSLPVSLGDQASISCRSSQSIVQSNGDTYLEWYLQKPGQSPKLLIYKVSNRFSGVPDRFSGSGSGTDFTLKISRVEAEDLGVYYCFQGSHVPFTFGSGTKLEIKR
notes: as for B1
B4: F1.257.3 (antibody, human IgG1, kappa, V domains shown)
VH: QVQLQQSGPELARPGASVKLSCKASGYTFTSYGISWVKQRTGQDLEWIGEIYPKLGTTYYNEKFKDKATLTTDRSSSTAYMALRSLTSEDSAVYFCACPHYYATRGGDYWGQGTTLTVSS
VL: EIVLTQSPATLSVTPGDSVTFSCRASQSISNHLHWYQQKSHESPRLLIRYASQSISGIPSRFSGSGSGTDFTLSLSSVETEDFGVYFCQQSHSWPYTFGGGTKLEIAR
notes: human-murine chimeric IgG1 kappa; VL name legible
B5: F1.192.1 (antibody, human IgG1, kappa, V domains shown)
VH: AVQLQQSGVELVRPGASVKLSCTGSDFNIKEDYIHWVKQRPEQGLEWIGWIDPENGDTEYASKFQGKATITADTSSNTAYLQLSSLTSEDTAVYYCATYGSLDYWGQGTTLTVSS
VL: DIKMTQSPSSMYAFLGERVTITCKASQGINSFLTWFQQKPGKSPKTLIYRANRLVDGVPSRFSGSGSGQDYSLTISSLEYEDVGIYYCLQYDEFPRTFGGGTKLEIKR
notes: as for B1
B6: F1.17.1 (antibody, human IgG1, kappa, V domains shown)
VH: QVQLKESGPGLVAPSQSLSITCTVSGFSLSRYTVHWVRQPPGKGLEWLGMIWGGGSTDYNSALKSRLSISKDNSKSQVFLKMNSLQTDDTAMYYCARPHDFDAGGFAYWGQGTLVTVSA
VL: QIVLTQSPAILSTSPGEKVTMTCSASSRVNYMYWYQQKPGSSPRLLIYDTSNLASGVPVRFSGSGSGTSYSLTISRMEAEDAATYYCQQWTSYPLTFGAGTKLELKR
notes: as for B1
B7: F1.245.2 (antibody, human IgG1, kappa, V domains shown)
VH: EVQLQQSGAELVKPGASVKLSCTGSGFNIKDYYIHWVKQRTEQGLEWMGRIDPEDGETEYAPKFQDEATITSDTSSNTAYLQLSSLTYEDTAVYYCAREAAGYFYRGSSYGYFDVWGTGTTVTVSS
VL: DFQMTQTTSFLSASLGDRVTISCSASQDISNYLNWYQQKPDGTVKLLIYYTSSLHSGVPSRFSGSGSGTDYSLTISNLEPEDIATYYCQQYSMLPYTFGGGTKLEMER
notes: as for B1
B8: F1.172.13 (antibody, human IgG1, kappa, V domains shown)
VH: QVTLKESGPGILQSSQTLSLTCSFSGFSLSTSGMGVSWIRQPSGKGLEWLAHIYWDDDKRYNPSLKSRLTISKDTSRNQVFLKITSVDTADTATYYCARAPPPNWDEYYFDYWGQGTTLTVSS
VL: DIQMTQSPASLSASVGETVTITCRASGNIHNSLAWYQQKQGKSPQLLVHNAKTLADGVPSRFSGSGSGTQYSLKINSLQPEDFGSYYCQHFWSTPPFGGGTKLEIKR
notes: as for B1
B9: F1.200.11 (antibody, human IgG1, kappa, V domains shown)
VH: QNQLVQSGPELKKPGETVKISCKASGYTFTTAGMQWVQKMPGKGFKWIGWINTLSGEPKYAEDFKGRFAFSLETSATTAYLQISNLKNEDTATYFCARAYYSNLYWYFDVWGTGTTVTVSS
VL: DIVMTQSQKFMSTTVGDRVTITCKASQNVVTAVAWYQQKPGQSPKVLIYSASNRYSGVPDRFTGSGSGTDFTLTISNMHSEDLANYFCHQYSSYPFTFGSGTKLEIKR
notes: as for B1

Tests used:
[1] = target: T1, CD22 on cynomolgus monkey peripheral blood B cells (cynomolgus monkey (Macaca fascicularis)); assay: FACS, cynomolgus PBMC, CD20+ B cells, antibody 10 nM
T1 construct: whole, on cells; also called cynomolgus monkey B cells
Outline: (§1)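 Readout: % chimeric-antibody-positive cells among CD20+ gated B cells, FACS. Cyno PBMC (Ficoll) in PBS/1% BSA; test Ab plus BV605 anti-CD20, 1 h RT; APC anti-hIgG Fc secondary, 30 min RT dark; washes between steps.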

[2] = target: T2, monkey CD22 protein (ACROBiosystems, catalog number SI2-R52Ha) (monkey, UniProt F6W485 20-688); assay: ELISA, coated monkey CD22 protein, antibody 0.01 nM
T2 construct: commercial protein; also called monkey CD22-ECD; monkey CD22-ECD-His
T2 sequence: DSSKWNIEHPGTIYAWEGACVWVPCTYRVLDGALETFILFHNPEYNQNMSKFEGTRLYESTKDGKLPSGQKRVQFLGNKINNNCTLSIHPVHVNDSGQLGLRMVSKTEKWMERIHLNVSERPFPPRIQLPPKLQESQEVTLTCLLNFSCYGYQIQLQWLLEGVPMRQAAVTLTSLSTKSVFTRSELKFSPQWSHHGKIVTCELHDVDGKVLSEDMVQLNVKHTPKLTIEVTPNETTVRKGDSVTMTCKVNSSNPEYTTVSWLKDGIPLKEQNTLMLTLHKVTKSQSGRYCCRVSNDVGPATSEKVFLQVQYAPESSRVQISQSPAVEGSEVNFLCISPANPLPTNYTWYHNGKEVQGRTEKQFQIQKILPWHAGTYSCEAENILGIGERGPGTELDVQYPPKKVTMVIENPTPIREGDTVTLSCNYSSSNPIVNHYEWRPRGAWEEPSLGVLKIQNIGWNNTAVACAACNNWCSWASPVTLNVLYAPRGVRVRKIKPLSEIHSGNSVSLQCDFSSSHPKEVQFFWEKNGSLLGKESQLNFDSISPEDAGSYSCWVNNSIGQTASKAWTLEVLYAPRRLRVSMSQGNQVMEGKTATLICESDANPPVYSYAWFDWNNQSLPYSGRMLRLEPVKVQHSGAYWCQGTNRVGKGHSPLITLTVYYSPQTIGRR
Outline: (§2)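 First, CD22 (2 μg/mL, PBS) was coated at 4° C overnight. Second, wells were blocked with PBS containing 2% BSA for 2 h at room temperature. Third, antibody and then HRP secondary were each incubated 2 h at 37° C. Finally, TMB colour was stopped with HCl.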

[3] = target: T2, monkey CD22 protein (ACROBiosystems, …); assay: ELISA, coated monkey CD22 protein, antibody 100 nM
Outline: as §2

[4] = target: T2, monkey CD22 protein (ACROBiosystems, …); assay: ELISA, coated monkey CD22 protein, antibody 0.00001 nM
Outline: as §2

[5] = target: T2, monkey CD22 protein (ACROBiosystems, …); assay: ELISA, coated monkey CD22 protein, antibody 0.1 nM
Outline: as §2

[6] = target: T2, monkey CD22 protein (ACROBiosystems, …); assay: ELISA, coated monkey CD22 protein, antibody 0.001 nM
Outline: as §2

[7] = target: T1, CD22 on cynomolgus monkey peripheral …; assay: FACS, cynomolgus PBMC, CD20+ B cells, antibody 100 nM
Outline: as §1

[8] = target: T2, monkey CD22 protein (ACROBiosystems, …); assay: ELISA, coated monkey CD22 protein, antibody 10 nM
Outline: as §2

[9] = target: T2, monkey CD22 protein (ACROBiosystems, …); assay: ELISA, coated monkey CD22 protein, antibody 0.0001 nM
Outline: as §2

[10] = target: T1, CD22 on cynomolgus monkey peripheral …; assay: FACS, cynomolgus PBMC, CD20+ B cells, antibody 1 nM
Outline: as §1

Binder | Proportion of chimeric antibody positive cells to B cells (%) [1] [%] | OD450 [2] [OD450] | OD450 [3] [OD450] | OD450 [4] [OD450] | OD450 [5] [OD450] | OD450 [6] [OD450] | Proportion of chimeric antibody positive cells to B cells (%) [7] [%] | OD450 [8] [OD450] | OD450 [9] [OD450] | Proportion of chimeric antibody positive cells to B cells (%) [10] [%]
B1 | 16 | 0.05 | 0.09 | 0.06 | 0.06 | 0.05 | 18 | 0.07 | 0.06 | 16
B2 | 19 | 0.05 | 0.36 | 0.06 | 0.07 | 0.05 | 24 | 0.18 | 0.06 | 17
B3 | 25 | 2.04 | 1.94 | 0.09 | 2.24 | 0.91 | 34 | 2.15 | 0.21 | 22
B4 | 20 | 0.05 | 0.18 | 0.06 | 0.06 | 0.05 | 34 | 0.07 | 0.06 | 17
B5 | 30 | 0.19 | 1.21 | 0.07 | 0.53 | 0.07 | 38 | 0.84 | 0.07 | 22
B6 | 62 | 1.75 | 1.91 | 0.07 | 1.99 | 0.51 | 68 | 2.16 | 0.13 | 60
B7 | 17 | 0.06 | 0.08 | 0.06 | 0.06 | 0.06 | 17 | 0.06 | 0.06 | 16
B8 | 31 | 2.47 | 3.21 | 0.09 | 2.78 | 0.82 | 34 | 2.93 | 0.18 | 30
B9 | 37 | 0.19 | 1.25 | 0.06 | 0.62 | 0.08 | 56 | 1.23 | 0.06 | 21
